Experimental data taken from PMC10500460.

Key:
IQGAP1 = IQGAP1 (UniProt P46940); test: GST pull-down after in vitro phosphorylation; conditions: reference: GST-E7 not kinase-treated; sites T5,T7,T19,T20
PTPN14 = PTPN14 (UniProt Q15678); test: GST pull-down after in vitro phosphorylation; conditions: reference: GST-E7 not kinase-treated; sites T5,T7,T19,T20
PTPN13 = PTPN13 (UniProt Q12923); test: biotin-peptide pull-down from lysate, Western blot; conditions: reference: unphosphorylated E7 13-28 peptide; sites T19,T20
pRb = pRb (UniProt P06400); test: biotin-peptide pull-down from lysate, Western blot; conditions: reference: unphosphorylated E7 13-28 peptide; sites T19,T20
PARD3 = PARD3 (UniProt Q8TEW0); test: biotin-peptide pull-down from lysate, Western blot; conditions: reference: unphosphorylated E7 13-28 peptide; sites T19,T20
AP2-μ2 (APμ2-HA) = AP2-μ2 (APμ2-HA) (UniProt P84092); test: biotin-peptide pull-down from lysate, Western blot; conditions: reference: unphosphorylated E7 13-28 peptide; sites T19,T20

Substance	binding against the reference (IQGAP1)	binding against the reference (PTPN14)	binding against the reference (PTPN13)	binding against the reference (pRb)	binding against the reference (PARD3)	binding against the reference (AP2-μ2 (APμ2-HA))
HPV16 E7 (from UniProt P03129) GST-E7 phosphorylated with CKI and GSK3	stronger	same				
HPV16 E7 13-28 (from UniProt P03129) pT19/pT20 E7 13-28 peptide			gained	stronger	gained	stronger
